Target: T1, SARS-CoV-2 Wuhan-Hu-1 S蛋白 (Sino Biological，货号:40589-V08B1) (SARS-CoV-2 Wuhan-Hu-1, UniProt P0DTC2 14-1213)
T1 construct: extracellular domain
Test: ELISA, S protein coated at 2 μg/mL, antibody at 1 μg/mL

B1: 抗新型冠状病毒SARS-CoV-2的广谱抗体(VSM12-37) (antibody, V domains shown)
VH: EVQLVESGGGLVQPGGSLRLSCAVSGFTVSSNYMSWVRQAPGKGLEWVSLIYSGGSTYYADSVKGRFTVSRDRSKNTLYLQMNSLRAEDTALYYCARDNPRVGSNYWGQGTLVTVSS
VL: DIQMTQSPSSLSASVGDRVTITCQASQDINNYLNWYQQKPGKAPKLLIYDASNLEAGVPSRFSGSGSGTDFTFTISSLQPEDIATYYCQQCDNVPLTFGGGTKVEIKR
notes: also called VSM12-37抗体
B1: binds.

Reference: patent CN118388640A (CHENZHOU NO 1 PEOPLES HOSPITAL, dated 2024)
